Measured values published in PMC11986948, “The carboxylesterase AtCXE12 converts volatile (Z)-3-hexenyl acetate to (Z)-3-hexenol in Arabidopsis leaves” (Plant Physiology, 2025).

What was measured:
Test in all cases: GC-MS of (Z)-3-hexenol formed, Michaelis-Menten fit
Assay type in all cases: biochemical, Arabidopsis thaliana
Details in all cases: 50 mM Tris-HCl pH 7.5, 30 °C, 10 min, 0.5 µM enzyme
[1] = substrate: CC/C=C\CCOC(=O)CCC
Excerpt: (§1) GC-MS of (Z)-3-hexenol formed, Michaelis-Menten fit on AtCXE12

[2] = substrate: CC/C=C\CCOC(C)=O
Excerpt: as §1

[3] = substrate: CC/C=C\CCOC(=O)CC
Excerpt: as §1

[4] = substrate: CC/C=C\CCOC(=O)CCC; remark: listed apart in the source
Excerpt: (§2) GC-MS of (Z)-3-hexenol formed, Michaelis-Menten fit on AtCXE5

[5] = substrate: CC/C=C\CCOC(C)=O; remark: listed apart in the source
Excerpt: as §2

[6] = substrate: CC/C=C\CCOC(=O)CC; remark: listed apart in the source
Excerpt: as §2

Row | Protein | Km [1] [mM] | kcat [1] [s⁻¹] | kcat/Km [1] [M⁻¹ s⁻¹] | Km [2] [mM] | kcat [2] [s⁻¹] | kcat/Km [2] [M⁻¹ s⁻¹] | Km [3] [mM] | kcat [3] [s⁻¹] | kcat/Km [3] [M⁻¹ s⁻¹] | Km [4] [mM] | kcat [4] [s⁻¹] | kcat/Km [4] [M⁻¹ s⁻¹] | Km [5] [mM] | kcat [5] [s⁻¹] | kcat/Km [5] [M⁻¹ s⁻¹] | Km [6] [mM] | kcat [6] [s⁻¹] | kcat/Km [6] [M⁻¹ s⁻¹]
1 | AtCXE12 (Arabidopsis thaliana) (protein) MDSEIAVDCSPLLKIYKSGRIERLMGEATVPPSSEPQNGVVSKDVVYSADNNLSVRIYLPEKAAAETDSKLPLLVYFHGGGFIIETAFSPTYHTFLTTSVSASNCVAVSVDYRRAPEHPISVPFDDSWTALKWVFTHITGSGQEDWLNKHADFSRVFLSGDSAGANIVHHMAMRAAKEKLSPGLNDTGISGIILLHPYFWSKTPIDEKDTKDETLRMKIEAFWMMASPNSKDGTDDPLLNVVQSESVDLSGLGCGKVLVMVAEKDALVRQGWGYAAKLEKSGWKGEVEVVESEGEDHVFHLLKPECDNAIEVMHKFSGFIKGGN | 0.46 ± 0.05 | 0.85 | 1860 | 5.94 ± 0.84 | 3.78 | 640 | 2.26 ± 0.34 | 2.25 | 990 | – | – | – | – | – | – | – | – | –
2 | AtCXE5 (Arabidopsis thaliana) (protein) MESEIASEFLPFCRIYKDGRVERLIGTDTIPASLDPTYDVVSKDVIYSPENNLSVRLFLPHKSTKLTAGNKLPLLIYIHGGAWIIESPFSPLYHNYLTEVVKSANCLAVSVQYRRAPEDPVPAAYEDVWSAIQWIFAHSNGSGPVDWINKHADFGKVFLGGDSAGGNISHHMAMKAGKEKKLDLKIKGIAVVHPAFWGTDPVDEYDVQDKETRSGIAEIWEKIASPNSVNGTDDPLFNVNGSGSDFSGLGCDKVLVAVAGKDVFVRQGLAYAAKLEKCEWEGTVEVVEEEGEDHVFHLQNPKSDKALKFLKKFVEFIIG | – | – | – | – | – | – | – | – | – | 0.24 ± 0.03 | 0.16 | 650 | 8.63 ± 1.28 | 3.17 | 380 | 1.45 ± 0.19 | 0.3 | 210
